# Results published in the supplement of paper PMC9112550, “Optimization of the antimicrobial peptide Bac7 by deep mutational scanning” (BMC Biology, 2022).
# System: Escherichia coli TOP10
# Experiment: shrunken log2 fold change of peptide-encoding DNA abundance (4.5 h post-induction vs induction); higher = less antimicrobial activity (less host growth inhibition)
# Conditions: time post-induction: 4.5 h; library: site-saturation at positions 5, 18, 19, 20
# 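Further: peptides expressed intracellularly from a pBAD plasmid library in pooled LB shake-flask culture, induced with 0.3% L-arabinose, DNA abundance read by NGS, three biological replicates, DESeq2 with apeglm shrinkage.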
row,Sequence,shrunken log2 fold change
1,RRIRERPPRLPRPRPRPYMHPRP,-0.232
2,RRIRQRPPRLPRPRPRPSDTPRP,-0.0683
3,RRIRWRPPRLPRPRPRPRVQPRP,0.927
4,RRIRERPPRLPRPRPRPIFMPRP,-0.1
5,RRIRGRPPRLPRPRPRPRCMPRP,0.364
6,RRIRARPPRLPRPRPRPGGYPRP,0.116
7,RRIRYRPPRLPRPRPRPRRLPRP,-0.385
8,RRIRQRPPRLPRPRPRPIDDPRP,-0.112
9,RRIRRRPPRLPRPRPRPKEIPRP,0.205
10,RRIRLRPPRLPRPRPRPSLQPRP,-0.348
11,RRIRGRPPRLPRPRPRPKCIPRP,0.0819
12,RRIRGRPPRLPRPRPRPREKPRP,0.969
13,RRIRCRPPRLPRPRPRPFNGPRP,-0.148
14,RRIRVRPPRLPRPRPRPTPNPRP,0.306
15,RRIRDRPPRLPRPRPRPQATPRP,0.403
16,RRIRNRPPRLPRPRPRPMWDPRP,-0.021
17,RRIRSRPPRLPRPRPRPQRKPRP,0.264
18,RRIRKRPPRLPRPRPRPYINPRP,-0.627
19,RRIRTRPPRLPRPRPRPPGHPRP,0.245
20,RRIRHRPPRLPRPRPRPTGMPRP,0.156
21,RRIRMRPPRLPRPRPRPWCMPRP,-0.0453
22,RRIRYRPPRLPRPRPRPKTSPRP,-0.595
23,RRIRNRPPRLPRPRPRPEDFPRP,0.0401
24,RRIRLRPPRLPRPRPRPCMMPRP,-0.225
25,RRIRPRPPRLPRPRPRPTRPPRP,0.782

row,Sequence,shrunken log2 fold change
1,RRIRERPPRLPRPRPRPFHWPRP,-0.0575
2,RRIRPRPPRLPRPRPRPTTRPRP,1.65
3,RRIRCRPPRLPRPRPRPHSPPRP,-0.422
4,RRIRKRPPRLPRPRPRPCSAPRP,-0.0728
5,RRIRFRPPRLPRPRPRPDRPPRP,0.033
6,RRIRERPPRLPRPRPRPTWGPRP,-0.0539
7,RRIRFRPPRLPRPRPRPKDGPRP,-0.184
8,RRIRNRPPRLPRPRPRPKQLPRP,0.252
9,RRIRTRPPRLPRPRPRPEVRPRP,0.0828
10,RRIRWRPPRLPRPRPRPTYEPRP,0.207
11,RRIRDRPPRLPRPRPRPVQVPRP,0.011
12,RRIRKRPPRLPRPRPRPHNWPRP,0.172
13,RRIRRRPPRLPRPRPRPKEQPRP,0.118
14,RRIRDRPPRLPRPRPRPLPHPRP,-0.146
15,RRIRGRPPRLPRPRPRPWDEPRP,0.0077
16,RRIRDRPPRLPRPRPRPATQPRP,0.52
17,RRIRGRPPRLPRPRPRPPWFPRP,0.772
18,RRIRMRPPRLPRPRPRPGLEPRP,1.61
19,RRIRIRPPRLPRPRPRPVKAPRP,-0.0571
20,RRIRGRPPRLPRPRPRPQNKPRP,0.0435
21,RRIRIRPPRLPRPRPRPIRLPRP,-0.41
22,RRIRPRPPRLPRPRPRPLCAPRP,0.119
23,RRIRLRPPRLPRPRPRPIYWPRP,-0.0187
24,RRIRTRPPRLPRPRPRPCLMPRP,-0.15
25,RRIRARPPRLPRPRPRPYYIPRP,-0.409

row,Sequence,shrunken log2 fold change
1,RRIRYRPPRLPRPRPRPEALPRP,-0.23
2,RRIRGRPPRLPRPRPRPLHSPRP,0.529
3,RRIRSRPPRLPRPRPRPVMHPRP,0.00492
4,RRIRMRPPRLPRPRPRPKWPPRP,1.18
5,RRIRARPPRLPRPRPRPRFWPRP,0.691
6,RRIRLRPPRLPRPRPRPARKPRP,0.0589
7,RRIRFRPPRLPRPRPRPQKDPRP,-0.376
8,RRIRLRPPRLPRPRPRPQDQPRP,0.14
9,RRIRERPPRLPRPRPRPSMDPRP,-0.355
10,RRIRTRPPRLPRPRPRPGQQPRP,-0.0603
11,RRIRTRPPRLPRPRPRPFMEPRP,-0.228
12,RRIRIRPPRLPRPRPRPFHPPRP,-0.111
13,RRIRWRPPRLPRPRPRPPPWPRP,0.616
14,RRIRLRPPRLPRPRPRPRYHPRP,-0.274
15,RRIRCRPPRLPRPRPRPFDDPRP,0.0116
16,RRIRIRPPRLPRPRPRPVPNPRP,-0.00284
17,RRIRSRPPRLPRPRPRPTMGPRP,-0.238
18,RRIRHRPPRLPRPRPRPKLFPRP,0.0628
19,RRIRNRPPRLPRPRPRPANNPRP,-0.0944
20,RRIRDRPPRLPRPRPRPVPEPRP,0.252
21,RRIRIRPPRLPRPRPRPQGGPRP,0.102
22,RRIRKRPPRLPRPRPRPCQDPRP,0.0115
23,RRIRPRPPRLPRPRPRPWGYPRP,-0.0649
24,RRIRQRPPRLPRPRPRPTWQPRP,0.186
25,RRIRPRPPRLPRPRPRPRTFPRP,0.23

row,Sequence,shrunken log2 fold change
1,RRIRRRPPRLPRPRPRPCCQPRP,0.0136
2,RRIRWRPPRLPRPRPRPYVVPRP,-0.256
3,RRIRARPPRLPRPRPRPNDDPRP,0.54
4,RRIRKRPPRLPRPRPRPLHFPRP,-0.258
5,RRIRDRPPRLPRPRPRPNPTPRP,0.135
6,RRIRTRPPRLPRPRPRPLQCPRP,0.174
7,RRIRPRPPRLPRPRPRPTGEPRP,0.396
8,RRIRLRPPRLPRPRPRPTPLPRP,0.296
9,RRIRDRPPRLPRPRPRPIAKPRP,0.0483
10,RRIRFRPPRLPRPRPRPMDPPRP,0.0482
11,RRIRCRPPRLPRPRPRPECTPRP,-0.0491
12,RRIRSRPPRLPRPRPRPQGHPRP,0.00442
13,RRIRNRPPRLPRPRPRPCQMPRP,-0.0139
14,RRIRERPPRLPRPRPRPYLMPRP,-0.696
15,RRIRVRPPRLPRPRPRPPQWPRP,0.353
16,RRIRARPPRLPRPRPRPPNPPRP,0.662
17,RRIRIRPPRLPRPRPRPIVDPRP,-0.0819
18,RRIRHRPPRLPRPRPRPMIIPRP,-0.205
19,RRIRERPPRLPRPRPRPPNNPRP,-0.186
20,RRIRERPPRLPRPRPRPERVPRP,-0.0309
21,RRIRIRPPRLPRPRPRPHCSPRP,-1.21
22,RRIRTRPPRLPRPRPRPRQNPRP,0.067
23,RRIRARPPRLPRPRPRPYWAPRP,-0.106
24,RRIRRRPPRLPRPRPRPQKDPRP,-0.151
25,RRIRKRPPRLPRPRPRPLFPPRP,0.161

row,Sequence,shrunken log2 fold change
1,RRIRIRPPRLPRPRPRPDHNPRP,-0.919
2,RRIRIRPPRLPRPRPRPTYMPRP,-0.707
3,RRIRSRPPRLPRPRPRPHICPRP,-0.127
4,RRIRFRPPRLPRPRPRPHFFPRP,-0.053
5,RRIRWRPPRLPRPRPRPSDGPRP,-0.785
6,RRIRYRPPRLPRPRPRPPKMPRP,0.28
7,RRIRIRPPRLPRPRPRPRKDPRP,-0.387
8,RRIRLRPPRLPRPRPRPISQPRP,-0.135
9,RRIRMRPPRLPRPRPRPHFIPRP,0.0859
10,RRIRPRPPRLPRPRPRPGLSPRP,0.206
11,RRIRYRPPRLPRPRPRPEENPRP,-0.0116
12,RRIRQRPPRLPRPRPRPYHTPRP,-0.00448
13,RRIRQRPPRLPRPRPRPQPHPRP,0.158
14,RRIRARPPRLPRPRPRPQNFPRP,-0.0953
15,RRIRARPPRLPRPRPRPWEPPRP,0.18
16,RRIRIRPPRLPRPRPRPWSHPRP,-0.416
17,RRIRRRPPRLPRPRPRPPSVPRP,0.545
18,RRIRSRPPRLPRPRPRPGESPRP,0.249
19,RRIRERPPRLPRPRPRPSFDPRP,-0.417
20,RRIRWRPPRLPRPRPRPLEHPRP,0.165
21,RRIRRRPPRLPRPRPRPHPFPRP,0.116
22,RRIRARPPRLPRPRPRPEKMPRP,0.706
23,RRIRERPPRLPRPRPRPEWNPRP,-0.197
24,RRIRWRPPRLPRPRPRPHVPPRP,-0.161
25,RRIRHRPPRLPRPRPRPISTPRP,-0.578

row,Sequence,shrunken log2 fold change
1,RRIRPRPPRLPRPRPRPRNPPRP,0.405
2,RRIRYRPPRLPRPRPRPFWAPRP,-0.306
3,RRIRCRPPRLPRPRPRPIYHPRP,-0.905
4,RRIRERPPRLPRPRPRPPGNPRP,0.106
5,RRIRDRPPRLPRPRPRPPYDPRP,-0.00841
6,RRIRPRPPRLPRPRPRPCNWPRP,-0.0706
7,RRIRVRPPRLPRPRPRPGMIPRP,-0.2
8,RRIRDRPPRLPRPRPRPKIYPRP,-0.684
9,RRIRCRPPRLPRPRPRPISVPRP,0.0666
10,RRIRHRPPRLPRPRPRPFPLPRP,-0.0682
11,RRIRYRPPRLPRPRPRPEDKPRP,-0.0222
12,RRIRYRPPRLPRPRPRPLCYPRP,-1
13,RRIRARPPRLPRPRPRPNLDPRP,-0.152
14,RRIRHRPPRLPRPRPRPKSTPRP,-0.0868
15,RRIRDRPPRLPRPRPRPYQQPRP,-0.184
16,RRIRCRPPRLPRPRPRPEKCPRP,0.209
17,RRIRDRPPRLPRPRPRPDSPPRP,-0.248
18,RRIRGRPPRLPRPRPRPAPIPRP,0.586
19,RRIRFRPPRLPRPRPRPENQPRP,-0.00277
20,RRIRSRPPRLPRPRPRPSYAPRP,-0.835
21,RRIRLRPPRLPRPRPRPHCWPRP,0.109
22,RRIRARPPRLPRPRPRPRARPRP,0.911
23,RRIRKRPPRLPRPRPRPQRFPRP,-0.00315
24,RRIRWRPPRLPRPRPRPIPTPRP,-0.0487
25,RRIRNRPPRLPRPRPRPTDAPRP,-0.15
